Data set [1] deals with T1, 6HisRsmA (RsmAxcc) (Xanthomonas citri subsp. citri strain …, UniProt Q8PLP9 1-70). The data set can be described thus: EMSA; 10 mM HEPES pH 7.3, 20 mM KCl, 1 mM MgCl2, 1 mM DTT, 5% glycerol, 0.1 µg/µL yeast tRNA, 20 U RNasin, 25 °C 20 min; 5% native PAGE. As to conditions: protein: recombinant; tags: N-terminal 6xHis (pET-28a, NdeI site); chain copies: 2; label: 3' biotin. On the technique in general: A gel shift assay detects complexes by their altered migration in electrophoresis.
T1 sequence (Q8PLP9 whole entry): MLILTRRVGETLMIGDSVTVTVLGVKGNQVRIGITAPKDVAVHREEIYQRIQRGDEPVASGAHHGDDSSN

Data set [2] has as its target T1, 6HisRsmA (RsmAxcc). In words: EMSA; 65 nM protein, 6.25 nM RNA; 10 mM HEPES pH 7.3, 20 mM KCl, 1 mM MgCl2, 1 mM DTT, 5% glycerol, 0.1 µg/µL yeast tRNA, 20 U RNasin, 25 °C 20 min; 5% native PAGE. The conditions noted are these: protein: recombinant; tags: N-terminal 6xHis (pET-28a, NdeI site); chain copies: 2.
The target in data set [3] is T1, 6HisRsmA (RsmAxcc). The data set can be described thus: EMSA; apparent Kd; 6.25 nM RNA; 10 mM HEPES pH 7.3, 20 mM KCl, 1 mM MgCl2, 1 mM DTT, 5% glycerol, 0.1 µg/µL yeast tRNA, 20 U RNasin, 25 °C 20 min; 5% native PAGE. The conditions noted are these: protein: recombinant; tags: N-terminal 6xHis (pET-28a, NdeI site); chain copies: 2; label: 3' biotin.

Take AUUCGUCCAGCUCCGCUGGACUCUC (ssRNA) [hrpG1]: in the data set with 6HisRsmA (RsmAxcc) [1], the binding result was “no binding”.
The same measure, in the same setting: in the case of GCCCAUCGCGCAGAUUGGCAACAUACGGCUACACCGCAUG (ssRNA) [hrpF] it was “no binding”; in that of GCGCAGCGAUCGCGGAAGGAGAGGGCAAUG (ssRNA) [hrpC], “no binding”.
GGGAAUUCAACUCCAUCUAGGCACAAGGAUGUGCCAUAGUACUCAAGCU (structured_RNA) [R9-43]: in the data set with 6HisRsmA (RsmAxcc) [2], the binding result was “binds”.
On to ACGAUGCAGCGAUCUUUGAAGAUGGAUUUUGUCCUGGCAUUG (ssRNA) [hrpG2], for which the Kd with 6HisRsmA (RsmAxcc) [3] came out at 180 ± 200 nM.
In the case of GUUAGGCGCCUGUUGUCUUUUGCUCCGCCCCCCAAAGAGAGAGAC (ssRNA) [hrpX], the binding result with 6HisRsmA (RsmAxcc) [1] is reported as “no binding”.
As for GUGUACGGUCCGCAUGUCAUUAAAACGAGGUGCAGUGUG (ssRNA) [hrpB], the binding result in the data set with 6HisRsmA (RsmAxcc) [1] was “no binding”.

These data come from publication PMC3937308, “The Post-transcriptional Regulator rsmA/csrA Activates T3SS by Stabilizing the 5′ UTR of hrpG, the Master Regulator of hrp/hrc Genes, in Xanthomonas”.
